In doi:10.1101/525485 (bioRxiv, 2019):

Columns and labels:
native gel or EMSA = target: the molecule itself; test: native gel or EMSA
ITC = target: the molecule itself; test: ITC
cross-linking = target: the molecule itself; test: cross-linking
human PCNA, purified = human PCNA, purified (human, UniProt P12004 1-261); test: ITC
Chain of human PCNA, purified (P12004 whole entry): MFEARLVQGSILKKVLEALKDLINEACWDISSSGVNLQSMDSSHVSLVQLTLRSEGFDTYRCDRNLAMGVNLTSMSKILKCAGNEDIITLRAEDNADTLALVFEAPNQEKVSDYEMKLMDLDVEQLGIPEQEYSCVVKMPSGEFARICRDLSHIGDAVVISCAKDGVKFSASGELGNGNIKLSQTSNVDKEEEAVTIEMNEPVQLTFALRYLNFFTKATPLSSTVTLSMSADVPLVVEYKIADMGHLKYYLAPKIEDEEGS

B1: Cdm1, fourth subunit of S. pombe DNA polymerase delta, purified (natural protein)
chain: MKKRTTQAKKSGQNTNIRDVFPHVVRSNSSQSHIGKKVSSEQSPTPDVTITTKTLDERIKEDDELSKEVEEAWNQIMAERISEPIHCENITKVEFILHHFDTTARYGPYLGMTRMQRWKRAKNFNLNPPETVGKILMLEEADEENRKRESLFYDLQTIPG
**Q.** Does B1 bind (native gel or EMSA)?
**A.** Result: binds

B2: p12 subunit of human DNA polymerase delta, purified, GST tag cleaved off (natural protein)
chain: MGRKRLITDSYPVVKRREGPAGHSKGELAPELGEEPQPRDEEEAELELLRQFDLAWQYGPCTGITRLQRWCRAKQMGLEPPPEVWQVLKTHPGDPRFQCSLWHLYPL
**Q.** How did the Kd (ITC) turn out when B2 was run?
**A.** The Kd was about 0.146 µM.

**Q.** And the dH (ITC)?
**A.** Its dH is about -1.82 kcal/mol.

**Q.** What about the “stoichiometry N” value (ITC) of the same binder?
**A.** Its value is about 0.6.

**Q.** And the “stoichiometry N” value (cross-linking)?
**A.** Its value is 2.

**Q.** And the Kd (human PCNA, purified)?
**A.** Its Kd is 10 µM.

B3: p12 L104A, Y105A mutant, purified (natural protein)
chain: MGRKRLITDSYPVVKRREGPAGHSKGELAPELGEEPQPRDEEEAELELLRQFDLAWQYGPCTGITRLQRWCRAKQMGLEPPPEVWQVLKTHPGDPRFQCSLWHAAPL
**Q.** For B3, which “stoichiometry N” value (cross-linking) is on record?
**A.** The value was 2.
